Tested on: Escherichia coli TOP10
Test: shrunken log2 fold change of peptide-encoding DNA abundance (4.5 h post-induction vs induction); higher = less antimicrobial activity (less host growth inhibition)
Settings: time post-induction: 4.5 h; library: site-saturation at positions 5, 18, 19, 20
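Further: peptides expressed intracellularly from a pBAD plasmid library in pooled LB shake-flask culture, induced with 0.3% L-arabinose, DNA abundance read by NGS, three biological replicates, DESeq2 with apeglm shrinkage.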

Row | Sequence | shrunken log2 fold change
1 | RRIRGRPPRLPRPRPRPLATPRP | 2.95
2 | RRIRRRPPRLPRPRPRPNFSPRP | 0.211
3 | RRIRKRPPRLPRPRPRPEICPRP | 0.661
4 | RRIRKRPPRLPRPRPRPCGIPRP | 0.0772
5 | RRIRARPPRLPRPRPRPDGNPRP | -0.0344
6 | RRIRTRPPRLPRPRPRPVTMPRP | -0.289
7 | RRIRIRPPRLPRPRPRPNDDPRP | -0.0364
8 | RRIRMRPPRLPRPRPRPKKPPRP | 0.102
9 | RRIRKRPPRLPRPRPRPQAIPRP | -0.0244
10 | RRIRRRPPRLPRPRPRPLVIPRP | -0.0686
11 | RRIRRRPPRLPRPRPRPMTRPRP | 0.315
12 | RRIRLRPPRLPRPRPRPSDIPRP | -0.0623
13 | RRIRVRPPRLPRPRPRPVFFPRP | -0.0099
14 | RRIRPRPPRLPRPRPRPHYEPRP | -0.206
15 | RRIRARPPRLPRPRPRPWTDPRP | -0.0701
16 | RRIRRRPPRLPRPRPRPWDMPRP | 0.0681
17 | RRIRWRPPRLPRPRPRPRYIPRP | -0.665
18 | RRIRTRPPRLPRPRPRPKQGPRP | 0.0588
19 | RRIRWRPPRLPRPRPRPAGMPRP | 0.321
20 | RRIRRRPPRLPRPRPRPTTIPRP | -0.12
21 | RRIRYRPPRLPRPRPRPMRTPRP | 0.176
22 | RRIRCRPPRLPRPRPRPMGYPRP | -0.0984
23 | RRIRCRPPRLPRPRPRPHRAPRP | -0.096
24 | RRIRWRPPRLPRPRPRPIMVPRP | -0.0215
25 | RRIRMRPPRLPRPRPRPDGHPRP | 0.0101

Row | Sequence | shrunken log2 fold change
26 | RRIRSRPPRLPRPRPRPYCPPRP | -0.802
27 | RRIRFRPPRLPRPRPRPHCMPRP | -0.371
28 | RRIRLRPPRLPRPRPRPRCIPRP | -0.0325
29 | RRIRCRPPRLPRPRPRPPHYPRP | 0.638
30 | RRIRHRPPRLPRPRPRPCYDPRP | -0.00778
31 | RRIRSRPPRLPRPRPRPMGVPRP | -0.084
32 | RRIRFRPPRLPRPRPRPLNRPRP | -0.196
33 | RRIRQRPPRLPRPRPRPHDPPRP | 0.142
34 | RRIRERPPRLPRPRPRPCVYPRP | -0.33
35 | RRIRCRPPRLPRPRPRPIDQPRP | -0.0719
36 | RRIRARPPRLPRPRPRPYTWPRP | -0.428
37 | RRIRYRPPRLPRPRPRPPMCPRP | -0.0507
38 | RRIRGRPPRLPRPRPRPPVCPRP | 0.213
39 | RRIRERPPRLPRPRPRPSSHPRP | -0.0471
40 | RRIRFRPPRLPRPRPRPGNPPRP | -0.00343
41 | RRIRGRPPRLPRPRPRPHWHPRP | 0.0418
42 | RRIRLRPPRLPRPRPRPNFNPRP | 0.597
43 | RRIRCRPPRLPRPRPRPWMQPRP | -0.0437
44 | RRIRTRPPRLPRPRPRPDNKPRP | -0.272
45 | RRIRARPPRLPRPRPRPYHHPRP | -0.826
46 | RRIRCRPPRLPRPRPRPKSRPRP | 0.0706
47 | RRIRWRPPRLPRPRPRPVRWPRP | 0.874
48 | RRIRHRPPRLPRPRPRPHMIPRP | 0.13
49 | RRIRFRPPRLPRPRPRPTDYPRP | -0.578
50 | RRIRQRPPRLPRPRPRPKRLPRP | 0.281

— the supplement of paper PMC9112550, “Optimization of the antimicrobial peptide Bac7 by deep mutational scanning” (BMC Biology, 2022)
